Results published in the DeepSol protein solubility set.

Experiment: soluble on expression in E. coli; label from the status in PepcDB or PDB records

Q: Which “soluble on expression in E. coli” value does the source give for “MPVAHVALPVPLPRTFDYLLPEGMAVKAGCRVRVPFGKQQERIGVVVSVSDVSELPLNELKAVVEVLDSEPVFTHSVWRLLLWAADYYHHPIGDVLFHALPILLRQGRPAANAPMWYWFATEQGHAVDLNSLKRSPKQQQALAALRQGKIWRDQVATLEFNDAALQALRKKGLCDLASETPEFSDWRTNYAVSGERLRLNTEQATAVGAIHSAADTFSAWLLAGVTGSGKTEVYLSVLENVLAQGKQALVMVPEIGLTPQTIARFRERFNAPVEVLHSGLNDSERLSAWLKAKNGEAAIVIGTRSALFTPFKNLGVIVIDEEHDSSYKQQEGWRYHARDLAVYRAHSEQIPIILGSATPALETLCNVQQKKYRLLRLTRRAGNARPAIQHVLDLKGQKVQAGLAPALITRMRQHLQADNQVILFLNRRGFAPALLCHDCGWIAECPRCDHYYTLHQAQQHLRCHHCDSQRPVPRQCPSCGSTHLVPVGLGTEQLEQTLAPLFPGVPISRIDRDTTSRKGALEQQLAEVHRGGARILIGTQMLAKGHHFPDVTLVALLDVDGALFSADFRSAERFAQLYTQVAGRAGRAGKQGEVVLQTHHPEHPLLQTLLYKGYDAFAEQALAERRMMQLPPWTSHVIVRAEDHNNQHAPLFLQQLRNLILSSPLADDKLWVLGPVPALAPKRGGRWRWQILLQHPSRVRLQHIINGTLALINTIPDSRKVKWVLDVDPIEG” here?
A: not soluble

Q: Which “soluble on expression in E. coli” value does the source give for “MPGEFAKFPEQSAGSHQFRNPLDELTGSNTITNLTAHDFDYFTQSEKNSNLYTSENTSNSNRLNLNQNIPVGTLIDGFELINEASGSGFLDDQLVDVSDYSRDRTTKLDRNRNSPELIVALLQRKVQGIRFSSNYGREEEPCVIEIPPGTMVREMADDDWKMSELKEWFTKSRASSHLRDGLAMPMEELDCTPLICAMITRSDVMRINQDQAIHLLAVSVEKRIEVYQNFEWFNFILNLKIGDSVSVEVDETMRRVPAKVSWIGERPEASGIWYNVDFDGNTSQWPSSNQSYSSSHDRLNRQFDTNWNFEMSGSSSVAPSNSRLYYSPNQMHMPMKGGGVSALYDNRRLVQYSGDEEQYRSAPKPAPRERIIPVSRQQPEIEQRNSRSMKPSEPDYNTYSTHPPRPPPSSSMNYPSMSNTHSLQPSRSKSVQTIQRNQFVRQNPAERNERVESDQLNFRIGDQCIWNNNGAEERGIIKYIGFLKGHKTLYAGVEFKNTIGAGTGVFNREQLFLAKDGHAGFVELSSLESPSSSISSTSTSSSQHRRRLSSSRSQQMPAASGTSISVPVNGRHNVNGKQASIESLSDPPPPPYAPPSPPRASSAAAAHQQPPPLPPKPLARVEDFLIDSYDIGSHVVVRHLGAQRTGVVRWLGEEIDDEGDRIVRSAIVQLDEDVPTAWRRSHDASSYTGSPVVGGVLVPIQSLKHNHSGSSSNGASVVQTSTYPTSQTYNNISRRTEDFGSMDSGVEKQKCGIAKDMQQLVGRQKGIQGYCNSCYLDATLYAMFVQTTCFDFLLEKSIKGSETAQQFQKILAHEIVFPLRKVHYVRADHVMKLRKLLAELMPHVTGLTNEEKDPEEILGFIFSKVFHAEPFIKLIGQNHAKDSQYLVPIVVDDWLGGAATSQHLLERHMRSAQVTFAKAPPVLIMQLPRYGQQKVFDKILPLETIDITPFVAGAVPACSKCQACSEVYCPTCFLTRRVFYSEVIFCRKCFHHTHLLPEIEDHKSRDLYPPGKPQKKPHSHKMVLSAVLCIETSHYVAYVRTSSNQWVFFDSMADREGLSDGFNVPVVRECGNMSDWLSLQGWNRLKDADECGQIKVWELNKNISPNDRKLEIAMFGKQSSLDPLVGRLLSDSYICFYEDASPTSSSSSSSTIISSIKNMMN” here?
A: not soluble

Q: With “GSPGISGGGGGILGLMAEQEPTAEQLAQIAAENEEDEHSVNYKPPAQKSIQEIQELDKDDESLRKYKEALLGRVAVSADPNVPNVVVTRLTLVCSTAPGPLELDLTGDLESFKKQSFVLKEGVEYRIKISFRVNREIVSGMKYIQHTYRKGVKIDKTDYMVGSYGPRAEEYEFLTPMEEAPKGMLARGSYNIKSRFTDDDRTDHLSWEWNLTIKKEWKD” as the sequence, how does the “soluble on expression in E. coli” value read?
A: soluble

Q: With “SDWKLEGSTQKVESPVLQGQEGILEETGEDGLPEGFQLLQIDAEGECQEGEILATGSTAWCSKNVQRKQRHWEKIVAAKKSKRKQEKERRKANRAENPGICPQHSKRFLRALTKDKLLEAKHSGPRLCIDLSMTHYMSKKELSRLAGQIRRLYGSNKKADRPFWICLTGFTTDSPLYEECVRMNDGFSSYLLDITEEDCFSLFPLETLVYLTPDSEHALEDVDLNKVYILGGLVDESIQKKVTFQKAREYSVKTARLPIQEYMVRNQNGKNYHSEILAINQVFDILSTYLETHNWPEALKKGVSSGKGYILRNSVE” as the sequence, how does the “soluble on expression in E. coli” value read?
A: soluble

Q: With “SATSVLCCLRCCRDGGTGHIPLKEMPAVQLDTQHMGIWGIGVATQKVNLNQIPLGRDMHSLVMRNDGALYHNNEEKNRLPANSLPQEGDVVGITYDHVELNVYLNGKNMHCPASGIRGTVYPVVYDDDSAILDCQFSEFYHTPPPGFEKILFEQQIF” as the sequence, how does the “soluble on expression in E. coli” value read?
A: soluble

Q: With “MFFKQFYDKHLSQASYLIGCQKTGEAMIIDPIRDLSSYIRVADEEGLTITHAAETHIHADFASGIRDVAIKLNASIYVSGESDDTLGYKNMPNQTHFVQHNDDIYVGNIKLKVLHTPGHTPESISFLLTDEGAGAQVPMGLFSGDFIFVGDIGRPDLLEKAVKVEGSSEIGAKQMFKSIESIKDLPNYIQIWPGHGAGSPCGKSLGAIPTSTLGYEKQTNWAFSENNEATFIDKLISDQPAPPHHFAQMKKINQFGMNLYQPYTVYPATNTNRLTFDLRSKEAYHGGHIEGTINIPYDKNFINQIGWYLNYDQEINLIGEYHLVSKATHTLQLIGYDDVAGYQLPQSKIQTRSIHSEDITGNESHILDVRNDNEWNNGHLSQAVHVPHGKLLETDLPFNRNDVIYVHCQSGIRSSIAIGILEHKGYHNIINVNEGYKDIHLSLEHHHHHH” as the sequence, how does the “soluble on expression in E. coli” value read?
A: soluble

Q: With “MSAPNPKAFPLADAALTQQILDVVQQAANLRQLKKGANEATKTLNRGISEFIIMAADCEPIEILLHLPLLCEDKNVPYVFVPSRVALGRACGVSRPVIAASITTNDASAIKTQIYAVKDKIETLLI” as the sequence, how does the “soluble on expression in E. coli” value read?
A: soluble

Q: With “MGSDKIHHHHHHMQVPSGAADLPEQMGTKAKFWFDDSRRLFKEGRPGTGENWAEVIAAELAALLGLPHATYSLAEYEGRRGVVTESFVPSGARLILGNELIGFAARETVSRHTRGQAHTIGRLSSLLNRPQVALPSGWVSPTSFFNAADVMSGYLLLDALIANQDRHEENWGLINSHGAIYLAPTFDHASSLGRNETDQRRIQKLDANHPDHGVLGYARRAKVPIYDGMGPLQSGEAFFAFARSCPDKGAYWLNRLHELDPSSFLALLNRIPVGWITDPARRFAAELLKVNRDRLLDEK” as the sequence, how does the “soluble on expression in E. coli” value read?
A: not soluble

Q: Which “soluble on expression in E. coli” value does the source give for “MGSDKIHHHHHHMPIYVYWGEDDFAMEKAIAVLRDHVLDPNWISFNYTAFTPDQADAAIQALNQVMTPTFGAGGRLVWLINTTLYQHCPENVLAELVRSLSVIPENSFLLLSSRNKPDERLKSTKLLKQFATEFREFPLIPPWKTELLVQSVNQVAQTVGVKLTANTAQLLAESVGNDTRLLYNEIEKLRLYAYGSNKPLDVDTVTKLVRNTTQNSLQLAAAIRIGDTAKALTTLADMINASEPGLRIVATLIGQFRTWLWVKIMIESGERNQQAIAIAADIGNPKRIYFLQQEIKLLSVQQLISCLPLLLELEVSLKQGASEMSTFQTKVIELCQVCQGS” here?
A: not soluble

Q: Which “soluble on expression in E. coli” value does the source give for “MGSDKIHHHHHHLNILVTNDDGIMSPGIILLAEALSEDHEVLVVAPDVERSATGHAITIRTPLWAKEVKVGNKNIGYAINGTPADCVKLGLLAISDRKIDLVISGVNKGQNMGIDVLYSGTVSGALEGAVTDTPSIAVSSSDWSNPEYETAARFMVNFLKIYDVSKMPDFTALNINVPSIKYEELKGWKVTRQSRRRYKDYFEKRKDPYGNNYYWIFGEVVEDECSTDCDFNAVKSNFVSITPLHAIMTDKKYFDELKEISEGWSE” here?
A: not soluble

Q: With “MSANLVTPKWGYIGKMPAKGDFVKDGISPEFANRWHDWQQAVIAVSKEQLGDTWNDYFLTAPVWHFALDVSYMDDATYIGSMIPSVDACGRYFFFTVVRAVKGKAAQYWAQSGWTEDSQTLALSVLDDEFVFDVWHRSMQEKCELVSEVSICNEEMALLYQSPISTVFSFSTEAKQNTLLNHLIESQQRKPCFWWTEGSTHIESCMFVSTGLPSIGQFSAMLDGRWQMWSW” as the sequence, how does the “soluble on expression in E. coli” value read?
A: not soluble

Q: Which “soluble on expression in E. coli” value does the source give for “SARIILERFLQGHEQTPPSKSVINSMLRDPSQIPDGVLANQVYQCIVNDCCYGPLVDCIKHAIGYEHEVLLRDLLLKKNLSFLDEDQLRAKGYDKTPDFILQVPVAVEGHIIHWIESKASFGDECSHHAYLHGQFWSYWNRFGPGLVIYWYGFIQELDCNRERGILLKASFPTDIVTLCHSTA” here?
A: soluble

Q: For “MGSDKIHHHHHHMSRISEEIENLTVELVKVPSVNGTEGEGNIGNKILSYLKEIDYFKEHEEYAFRIPLKNDKLGRGNVFALIRGEKGQSNRTIILHGHMDTVAVDDYGSLKDYAFDPDILQKKLKEIELPEEVREDLDSGDWMFGRGASDMKSGDAVHLVVLKELSKRVKDISGNILFMSNPVEENEHNGIREALDTLEKLKEKYSLEYTLAINNDYICPMYKGDNTRYLYTGTVGKLLPAFYFVGKETHVGQCFEGINADVIASEVINEIDLNVDLCDEYNGEYTLPPSVLKFKDLKESYNVQTPFSSFAYFNYTVHSESPKQASEKLKKAAKRAFERVIKRNDDRYKKYCEMTNQKYEPLNFQAKVITYTQLYTLAKARFSGDLDKEIKSYEQRLVDNYVDIREISLRVVDKVFNIWGEKKPCIVMFFAPPYCPHNTLNVKNEKEKEIINKIKECAQQLKEKEGINEEFKVMQFFPSLSDSSYLKIDDDSEGIESLTSNFPGWDRVYGVPVQKIKDLNIPAINYGCYGKDAHKWTERVYKPYSFEVLPKLIMLTIEKFL”, which “soluble on expression in E. coli” value is on record?
A: not soluble

Q: For “MSLTESARIDGVSLYEIVIPMKIPFQISSGTCYTRRSLVVEIREGDLFGYGESAPFEEPFYLGETLETTKVILKNHLLPMILGKEPLSIEEFNHLIKNGIRGNHFARCGVENAYWDLIAKKNKISLKAMIEKKMKNLGVKQEYLASNNYIESGAALGIPEDGRIETLIHQVEESLQEGYRRIKIKIKPGWDVEPLQETRRAVGDHFPLWTDANSSFELDQWETFKAMDAAKCLFHEQPLHYEALLDLKELGERIETPICLDESLISSRVAEFVAKLGISNIWNIKIQRVGGLLEAIKIYKIATDNGIKLWGGTMPESGLGARFLISLASFRGFVFPADVAASEKWYGKGNDLVENTMTDGKIYVPDEPGASFDMTLSHLEALGKKIWESQRGEGHHHHHH”, which “soluble on expression in E. coli” value is on record?
A: soluble

Q: Which “soluble on expression in E. coli” value does the source give for “MSKFAERLQTVANKPEVFQKFSRGLERESLRYTPEGALTQTPHPKALGAALTHRWITTDFAESLLEFITPVSHEVDTLLAQMSDIHHFAQTKLGDEKLWPLSMPCYVGSEEGIVLAQYGSSNTGKMKTLYREGLKRRYGSLMQIISGVHFNFSFPESFWDALFGEQEESARQASKSAAYFGVIRNYYRFGWLIPYLFGASPALCSSFLQGRKTDLPFESIGKTLYLPYATSLRLSDLGYTNSAQSVLQIGFNSIEQYLQGLNEAIRTPSAEFAKLGVKVEGEYRQLNSNVLQIENELYAPIRPKRVTQSGERPSQALARAGVEYIEVRSLDVNPFSPIGINEDQVRFLDLFLAWTALSDSDPMDGCELACWRDNWRKVVLEGRKPGLELQIGCHGEVLTLQAWAKRVFADLRVIAETMDAALGGDAYQAVCAKLETWIENPELTLSAQILAEIKQHGGLGKTGCALGNEYRAVNLQHQYQFYSQDEMEQEVRRSTQAQADIEAKETLNFDAYLTQYFAYLQAVS” here?
A: not soluble
